In US20100151556A1 (CELLECTIS, published 2010):

Tests used:
[1] = target: T1, H33 I-CreI mutant (C3 / HprCH3.3 cutter)
T1 chain: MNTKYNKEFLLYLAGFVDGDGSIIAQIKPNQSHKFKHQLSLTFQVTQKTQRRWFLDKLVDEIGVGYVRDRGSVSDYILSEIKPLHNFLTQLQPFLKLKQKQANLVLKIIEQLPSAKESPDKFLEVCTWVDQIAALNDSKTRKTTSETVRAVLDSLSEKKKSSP

[2] = target: the molecule itself; experiment: size-exclusion chromatography of the purified protein; no self-association
Description: The molecular weight of Sc I-CreI in solution was estimated by size-exclusion chromatography of the purified protein. The column fractions were analyzed by SDS-PAGE, and the 31.4 kDa band eluted primarily, which corresponded to a molecular mass of 30 kDa.

[3] = target: the molecule itself; experiment: analytical gel filtration (Superdex 200) of the purified single chain; no self-association
Description: Circular dichroism (CD) measurements were performed on a Jasco J-810 spectropolarimeter using a 0.2 cm path length quartz cuvette adm […] protein solutions in phosphate saline buffers. Equilibrium unfolding was induced increasing temperature at a rate of 1° C./min (using a programmable Peltier thermoelectric). Analytical gel filtration chromatography was performed at room temperature with an AKTA FPLC system (GE) using a Superdex 200 10/300GL column in 20 mM sodium phosphate buffer pH 6.0 1 M NaCl. A sample of 100 μL of SC-v3v2G19S constructs at a concentration of 0.3 mg/ml was injected and eluted at a flow rate of 0.2 ml/min. The column was calibrated with blue dextran (excluded volume) and molecular weight markers from 17 to 670 kDa (BioRad).

B1: X2-L1-H33 single chain meganuclease (protein)
chain: MNTKYNKEFLLYLAGFVDGDGSIIAQIKPNQSHKFKHALQLTFKVTQKTQRRWFLDKLVDEIGVGYVQDSGSVSNYILSEIKPLHNFLTQLQPFLKLKQKQANLVLKIIEQLPSAKESPDKFLEVCTWVDQIAALNDSKTRKTTSETVRAVLDSLSEKKKSSPAAGGGGSGGGGSGGGGSGGGGSNKEFLLYLAGFVDGDGSIIAQIKPNQSHKFKHQLSLAFQVTQKTQRRWFLDKLVDEIGVGYVRDRGSVSDYILSEIKPLHNFLTQLQPFLKLKQKQANLVLKIIWRLPSAKESPDKFLEVCTWVDQIAALNDSKTRKTTSETVRAVLDSLSEKKKSSP
For B1, the “cleavage of the palindromic C3 target (yeast screen and CHO extrachromosomal assay)” value was “the strong cleavage of the C3 target with single chain molecules”.

B2: X2-L1-H33G19S single chain meganuclease (protein)
chain: MNTKYNKEFLLYLAGFVDGDGSIIAQIKPNQSHKFKHALQLTFKVTQKTQRRWFLDKLVDEIGVGYVQDSGSVSNYILSEIKPLHNFLTQLQPFLKLKQKQANLVLKIIEQLPSAKESPDKFLEVCTWVDQIAALNDSKTRKTTSETVRAVLDSLSEKKKSSPAAGGGGSGGGGSGGGGSGGGGSNKEFLLYLAGFVDSDGSIIAQIKPNQSHKFKHQLSLAFQVTQKTQRRWFLDKLVDEIGVGYVRDRGSVSDYILSEIKPLHNFLTQLQPFLKLKQKQANLVLKIIWRLPSAKESPDKFLEVCTWVDQIAALNDSKTRKTTSETVRAVLDSLSEKKKSSP
For B2, the “cleavage of the palindromic C3 target (CHO extrachromosomal assay)” value was “greatly reduces the activity toward the C3 target”.

B3: M2-RM2-M3 RAG1 single chain meganuclease (protein)
chain: MNTKYNKEFLLYLAGFVDGDGSIIAQIKPRQSNKFKHQLSLTFAVTQKTQRRWFLDKLVDEIGVGYVYDSGSVSDYRLSEIKPLHNFLTQLQPFLKLKQKQANLVLKIIEQLPSAKESPDKFLEVCTWVDQIAALNDSKTRKTTSETVRAVLDSLSEKKKSSPAAGGSDKYNQALSKYNQALSKYNQALSGGGGSNKEFLLYLAGFVDGDGSIIAQINPNQSSKFKHRLRLTFYVTQKTQRRWFLDKLVDEIGVGYVRDSGSVSQYVLSEIKPLHNFLTQLQPFLKLKQKQANLVLKIIEQLPSAKESPDKFLEVCTWVDQIAALNDSKTRKTTSETVRAVLDSLSEKKKSSP
For B3, the “cleavage of the palindromic RAG1.10.2 target (yeast screen)” value was “M2-RM2-M3 was found to cleave also RAG1.10.2”.

B4: M2G19S-RM2-M3 RAG1 single chain meganuclease (protein)
chain: MNTKYNKEFLLYLAGFVDSDGSIIAQIKPRQSNKFKHQLSLTFAVTQKTQRRWFLDKLVDEIGVGYVYDSGSVSDYRLSEIKPLHNFLTQLQPFLKLKQKQANLVLKIIEQLPSAKESPDKFLEVCTWVDQIAALNDSKTRKTTSETVRAVLDSLSEKKKSSPAAGGSDKYNQALSKYNQALSKYNQALSGGGGSNKEFLLYLAGFVDGDGSIIAQINPNQSSKFKHRLRLTFYVTQKTQRRWFLDKLVDEIGVGYVRDSGSVSQYVLSEIKPLHNFLTQLQPFLKLKQKQANLVLKIIEQLPSAKESPDKFLEVCTWVDQIAALNDSKTRKTTSETVRAVLDSLSEKKKSSP
For B4, the “cleavage of the palindromic RAG1.10.2 target (yeast screen)” value was “abolishes RAG1.10.2 cleavage”.

B5: X2-RM2-H33G19S single chain meganuclease (protein)
chain: MNTKYNKEFLLYLAGFVDGDGSIIAQIKPNQSHKFKHALQLTFKVTQKTQRRWFLDKLVDEIGVGYVQDSGSVSNYILSEIKPLHNFLTQLQPFLKLKQKQANLVLKIIEQLPSAKESPDKFLEVCTWVDQIAALNDSKTRKTTSETVRAVLDSLSEKKKSSPAAGGSDKYNQALSKYNQALSKYNQALSGGGGSNKEFLLYLAGFVDSDGSIIAQIKPNQSHKFKHQLSLAFQVTQKTQRRWFLDKLVDEIGVGYVRDRGSVSDYILSEIKPLHNFLTQLQPFLKLKQKQANLVLKIIWRLPSAKESPDKFLEVCTWVDQIAALNDSKTRKTTSETVRAVLDSLSEKKKSSP
In the case of B5, the “cleavage of the palindromic C3 target (CHO extrachromosomal assay)” value is reported as “greatly reduces the activity toward the C3 target”.

B6: X2-RM2-H33 single chain meganuclease (protein)
chain: MNTKYNKEFLLYLAGFVDGDGSIIAQIKPNQSHKFKHALQLTFKVTQKTQRRWFLDKLVDEIGVGYVQDSGSVSNYILSEIKPLHNFLTQLQPFLKLKQKQANLVLKIIEQLPSAKESPDKFLEVCTWVDQIAALNDSKTRKTTSETVRAVLDSLSEKKKSSPAAGGSDKYNQALSKYNQALSKYNQALSGGGGSNKEFLLYLAGFVDGDGSIIAQIKPNQSHKFKHQLSLAFQVTQKTQRRWFLDKLVDEIGVGYVRDRGSVSDYILSEIKPLHNFLTQLQPFLKLKQKQANLVLKIIWRLPSAKESPDKFLEVCTWVDQIAALNDSKTRKTTSETVRAVLDSLSEKKKSSP
In the case of B6, the “cleavage of the palindromic C3 target (yeast screen and CHO extrachromosomal assay)” value is reported as “the strong cleavage of the C3 target with single chain molecules”.

B7: X2 I-CreI mutant (C4 cutter) (protein)
chain: MNTKYNKEFLLYLAGFVDGDGSIIAQIKPNQSHKFKHALQLTFKVTQKTQRRWFLDKLVDEIGVGYVQDSGSVSNYILSEIKPLHNFLTQLQPFLKLKQKQANLVLKIIEQLPSAKESPDKFLEVCTWVDQIAALNDSKTRKTTSETVRAVLDSLSEKKKSSP
In the case of B7, the “cleavage of the palindromic C4 DNA target on co-expression of X2 and H33 in yeast” value is reported as “but also the C3 and C4 targets” and the “cleavage of the XPC C1 DNA target on co-expression in yeast” value [1] is reported as “cleaves the C1 target”.

B8: MA17 I-CreI mutant (HprCH3.4 cutter) (protein)
chain: MNTKYNKEFLLYLAGFVDGDGSIIAQIKPNQTHKFKHQLSLTFRVTQKTQRRWFLDKLVDEIGVGYVYDSGTVSNYNLSEIKPLHNFLTQLQPFLKLKQKQANLVLKIIEQLPSAKESPDKFLEVCTWVDQIAALNDSKTRKTTSETVRAVLDSLSEKKKSSP
For B8, the “cleavage of the palindromic HprCH3.3 and HprCH3.4 targets on co-expression of MA17 and H33 in yeast” value was “cleavage of the HprCH3.3 and HprCH3.4 targets” and the “cleavage of the HprCH3 DNA target on co-expression in yeast” value [1] was “resulted in the cleavage of the HprCH3 DNA target”.

B9: H33 I-CreI mutant (C3 / HprCH3.3 cutter) (protein)
chain: MNTKYNKEFLLYLAGFVDGDGSIIAQIKPNQSHKFKHQLSLTFQVTQKTQRRWFLDKLVDEIGVGYVRDRGSVSDYILSEIKPLHNFLTQLQPFLKLKQKQANLVLKIIEQLPSAKESPDKFLEVCTWVDQIAALNDSKTRKTTSETVRAVLDSLSEKKKSSP
For B9, the “cleavage of the palindromic HprCH3.3 and HprCH3.4 targets on co-expression of MA17 and H33 in yeast” value was “cleavage of the HprCH3.3 and HprCH3.4 targets”.

B10: Single chain I-CreI meganuclease (enzyme)
chain: MANTKYNKEFLLYLAGFVDGDGSIIAQIKPNQSYKFKHQLSLTFQVTQKTQRRWFLDKLVDEIGVGYVRDRGSVSDYILSEIKPLHNFLTQLQAMLERIRLFNMREFLLYLAGFVDGDGSIIAQIKPNQSYKFKHQLSLTFQVTQKTQRRWFLDKLVDEIGVGYVRDRGSVSDYILSEIKPLHNFLTQLQPFLKLKQKQANLVLKIIEQLPSAKESPDKFLEVCTWVDQIAALNDSKTRKTTSETVRAVLDSLSEKKKSSPAAD
notes: Produced 'with or without an histidine tag'; It was purified on a cobalt column; also called Sc I-CreI; scI-CreI
B10: no binding [2].

B11: single-chain M3-RM2-M2G19S meganuclease (enzyme)
chain: MANTKYNKEFLLYLAGFVDGDGSIIAQINPNQSSKFKHRLRLTFYVTQKTQRRWFLDKLVDEIGVGYVRDSGSVSQYVLSEIKPLHNFLTQLQPFLKLKQKQANLVLKIIEQLPSAKESPDKFLEVCTWVDQIAALNDSKTRKTTSETVRAVLDSLSGKKKSSPAAGGSDKYNQALSKYNQALSKYNQALSGGGGSNKEFLLYLAGFVDSDGSIIAQIKPRQSNKFKHQLSLTFAVTQKTQRRWFLDKLVDEIGVGYVYDSGSVSDYRLSEIKPLHNFLTQLQPFLKLKQKQANLVLKIIEQLPSAKESPDKFLEVCTWVDQIAALNDSKTRKTTSETVRAVLDSLSEKKKSSP
notes: also called SC-v3v2G19S; not shown: His6 tag at the C-terminus
B11: no binding [3].
